In the Immune Epitope Database (IEDB):

How the values were obtained:
[1] = target: HLA-A*02:01; assay: IEDB peptide-MHC binding, purified MHC/competitive/radioactivity; ≥ and ≤ were set here for values at or beyond the usual limits of such assays
[2] = target: HLA-A*02:02; assay: as above
[3] = target: HLA-A*02:03; assay: as above
[4] = target: HLA-A*02:06; assay: as above
[5] = target: HLA-A*68:02; assay: IEDB peptide-MHC binding, cellular MHC/competitive/fluorescence; ≥ and ≤ were set here for values at or beyond the usual limits of such assays
[6] = source organism: Vaccinia virus WR
[7] = source organism: Mammarenavirus whitewaterense
[8] = source organism: Hepacivirus hominis
[9] = source organism: Mammarenavirus brazilense
[10] = source organism: Mammarenavirus choriomeningitidis

Sequence	IC50 [1, 6] [nM]	IC50 [2, 6] [nM]	IC50 [3, 6] [nM]	IC50 [4, 6] [nM]	IC50 [5, 6] [nM]	further results
QIGGEAIFLI	383	8.2	0.2	15	≥ 70000	
GVSGLYIPGT	4730	140	2150	32	15800	
SALMTLDDL	1100	411	707	100	6940	
VLTHGLASV						IC50 ([1]; source organism: SARS-CoV1): 3.7 nM; IC50 ([2]; source organism: SARS-CoV1): 9.6 nM; IC50 ([3]; source organism: SARS-CoV1): 0.3 nM; IC50 ([4]; source organism: SARS-CoV1): 1.4 nM; IC50 ([5]; source organism: SARS-CoV1): 5420 nM
PVLEKKVCAI	1530	541	1190	1040	39700	
AVTLNRIKIA	1250	1720	1290	2290	11000	
YNLSLSAAV						IC50 [1, 7]: 255 nM; IC50 [2, 7]: 868 nM; IC50 [3, 7]: 1150 nM; IC50 [4, 7]: 1660 nM; IC50 [5, 7]: ≥ 70000 nM
KLYGYASLT	326	76	22	1990	11000	
LLYFILFFVA						IC50 [1, 8]: 1120 nM; IC50 [2, 8]: 3740 nM; IC50 [3, 8]: 4700 nM; IC50 [4, 8]: 993 nM; IC50 [5, 8]: ≥ 70000 nM
ALEQYGIENT	1450	3150	2160	1270	21800	
GLLLLCVGV						IC50 [1, 8]: 43 nM; IC50 [2, 8]: 479 nM; IC50 [3, 8]: 285 nM; IC50 [4, 8]: 892 nM; IC50 [5, 8]: 49200 nM
VMWKCLIRL						IC50 [1, 8]: 53 nM; IC50 [2, 8]: 377 nM; IC50 [3, 8]: 823 nM; IC50 [4, 8]: 947 nM; IC50 [5, 8]: 7600 nM
KLPTWLGAA	207	499	8	9.4	≥ 70000	
VLTSVDIETA	747	62	421	1410	11400	
ALSGVFCGV						IC50 ([1]; source organism: SARS-CoV1): 13 nM; IC50 ([2]; source organism: SARS-CoV1): 1.2 nM; IC50 ([3]; source organism: SARS-CoV1): 12 nM; IC50 ([4]; source organism: SARS-CoV1): 50 nM; IC50 ([5]; source organism: SARS-CoV1): 22500 nM
ALLRMCALV						IC50 [1, 8]: 34 nM; IC50 [2, 8]: 83 nM; IC50 [3, 8]: 65 nM; IC50 [4, 8]: 417 nM; IC50 [5, 8]: 6490 nM
YLLMHLVSL	3.5	0.18	1.4	0.25	7750	
KILSDENYLL	15	25	3770	16	≥ 70000	
MLLIAQAEA						IC50 [1, 8]: 82 nM; IC50 [2, 8]: 141 nM; IC50 [3, 8]: 123 nM; IC50 [4, 8]: 645 nM; IC50 [5, 8]: 6150 nM
GLIHACMLV						IC50 [1, 8]: 1.3 nM; IC50 [2, 8]: 1.5 nM; IC50 [3, 8]: 1.9 nM; IC50 [4, 8]: 12 nM; IC50 [5, 8]: 37400 nM
RLVPGATYAL						IC50 [1, 8]: 150 nM; IC50 [2, 8]: 12 nM; IC50 [3, 8]: 834 nM; IC50 [4, 8]: 834 nM; IC50 [5, 8]: 45800 nM
GLDERFVEEL	331	93	1210	2520	6180	
LLKCVSDSWL	1530	76	118	4730	9850	

Sequence	IC50 [1, 6] [nM]	IC50 [2, 6] [nM]	IC50 [3, 6] [nM]	IC50 [4, 6] [nM]	IC50 [5, 6] [nM]	further results
VLLPFYETL	7.2	4060	267	218	24300	
GLLDSIKMI	15	80	14	43	≥ 70000	
TILATLNTL	172	238	34	26	18500	
SLVKESMASL	2360	994	7.8	1430	7960	
VMFNGVTFST						IC50 ([1]; source organism: SARS-CoV1): 8.5 nM; IC50 ([2]; source organism: SARS-CoV1): 0.69 nM; IC50 ([3]; source organism: SARS-CoV1): 75 nM; IC50 ([4]; source organism: SARS-CoV1): 131 nM; IC50 ([5]; source organism: SARS-CoV1): 13700 nM
YNYSLSAAV						IC50 [1, 9]: 539 nM; IC50 [2, 9]: 79 nM; IC50 [3, 9]: 67 nM; IC50 [4, 9]: 88 nM; IC50 [5, 9]: ≥ 70000 nM
ALLSCLTTPA						IC50 [1, 8]: 161 nM; IC50 [2, 8]: 439 nM; IC50 [3, 8]: 211 nM; IC50 [4, 8]: 231 nM; IC50 [5, 8]: ≥ 70000 nM
CLLTDTIESA	188	53	102	92	22200	
AQFLYLYAL						IC50 ([1]; source organism: SARS-CoV1): 0.39 nM; IC50 ([2]; source organism: SARS-CoV1): 0.92 nM; IC50 ([3]; source organism: SARS-CoV1): 6.2 nM; IC50 ([4]; source organism: SARS-CoV1): 0.35 nM; IC50 ([5]; source organism: SARS-CoV1): 9620 nM
LLLSICLGSL						IC50 ([1]; source organism: SARS-CoV1): 45 nM; IC50 ([2]; source organism: SARS-CoV1): 20 nM; IC50 ([3]; source organism: SARS-CoV1): 104 nM; IC50 ([4]; source organism: SARS-CoV1): 258 nM; IC50 ([5]; source organism: SARS-CoV1): 54900 nM
YLLGLSAIM						IC50 ([1]; source organism: SARS-CoV1): 1.1 nM; IC50 ([2]; source organism: SARS-CoV1): 1.7 nM; IC50 ([3]; source organism: SARS-CoV1): 37 nM; IC50 ([4]; source organism: SARS-CoV1): 3.2 nM; IC50 ([5]; source organism: SARS-CoV1): 12100 nM
LLLSTTEWQV						IC50 [1, 8]: 7.1 nM; IC50 [2, 8]: 18 nM; IC50 [3, 8]: 101 nM; IC50 [4, 8]: 13 nM; IC50 [5, 8]: 10100 nM
LSAEELMSL						IC50 [1, 10]: 2210 nM; IC50 [2, 10]: 65 nM; IC50 [3, 10]: 706 nM; IC50 [4, 10]: 66 nM; IC50 [5, 10]: 5820 nM
RLFTRCAVI	209	94	249	2820	6640	
SMMVILPDKI	6.1	28	19	5.7	7290	
GMQFDKVYL	72	13	277	1900	17200	
TLVPVLEKKV	959	112	100	498	32000	
FLQISRVNDL	13	5.2	67	582	7360	
GLRQQLEDI	125	43	4.7	4310	≥ 70000	
LLDDFVEII						IC50 ([1]; source organism: SARS-CoV1): 51 nM; IC50 ([2]; source organism: SARS-CoV1): 136 nM; IC50 ([3]; source organism: SARS-CoV1): 523 nM; IC50 ([4]; source organism: SARS-CoV1): 159 nM; IC50 ([5]; source organism: SARS-CoV1): 30200 nM
RLHGLEAFSL						IC50 [1, 8]: 224 nM; IC50 [2, 8]: 35 nM; IC50 [3, 8]: 602 nM; IC50 [4, 8]: 649 nM; IC50 [5, 8]: 18500 nM
GLFDINVIGL	13	0.16	1.4	240	7080	
VIPDELIDV	229	609	44	556	52200	

Sequence	IC50 [1, 6] [nM]	IC50 [2, 6] [nM]	IC50 [3, 6] [nM]	IC50 [4, 6] [nM]	IC50 [5, 6] [nM]	further results
MLDDFSAGA	0.43	68	73	114	10500	
FMLCLLLLS						IC50 [1, 8]: 2730 nM; IC50 [2, 8]: 997 nM; IC50 [3, 8]: 1450 nM; IC50 [4, 8]: 2100 nM; IC50 [5, 8]: ≥ 70000 nM
AMIHKTYIDV	173	335	27	206	21200	
LMWFIISIV						IC50 ([1]; source organism: SARS-CoV1): 9.8 nM; IC50 ([2]; source organism: SARS-CoV1): 60 nM; IC50 ([3]; source organism: SARS-CoV1): 7.2 nM; IC50 ([4]; source organism: SARS-CoV1): 27 nM; IC50 ([5]; source organism: SARS-CoV1): 18400 nM
KLPTWLGAAI	226	103	123	295	6370	
SMYVIPDEL	91	5	13	2820	7090	
KIVQLPKRGV	2240	4120	51	2250	62600	
GLVDVCFWS						IC50 [1, 7]: 112 nM; IC50 [2, 7]: 116 nM; IC50 [3, 7]: 1070 nM; IC50 [4, 7]: 534 nM; IC50 [5, 7]: 8220 nM
IMRNFLRSI	2060	485	0.4	3920	62700	
ILLSRCLWWT						IC50 [1, 8]: 293 nM; IC50 [2, 8]: 4740 nM; IC50 [3, 8]: 1100 nM; IC50 [4, 8]: 246 nM; IC50 [5, 8]: ≥ 70000 nM
KIIAVFDSKL	978	25	57	59	31700	
ALYGVWPLLL						IC50 [1, 8]: 9 nM; IC50 [2, 8]: 8.9 nM; IC50 [3, 8]: 7.5 nM; IC50 [4, 8]: 166 nM; IC50 [5, 8]: 20600 nM
QLLKILDNL	441	227	319	135	21700	
KLWAQCVQL						IC50 ([1]; source organism: SARS-CoV1): 4.7 nM; IC50 ([2]; source organism: SARS-CoV1): 13 nM; IC50 ([3]; source organism: SARS-CoV1): 194 nM; IC50 ([4]; source organism: SARS-CoV1): 9.5 nM; IC50 ([5]; source organism: SARS-CoV1): 23100 nM
ILHNIYRLFT	231	125	11	1210	40900	
SLDQTHIKTI	759	1430	15	2460	7580	
IALCKVTVPT	2120	1960	2220	652	≥ 70000	
SLIYYQNEVT	529	77	606	4310	7200	
TLLGCWSFVL						IC50 [1, 8]: 17 nM; IC50 [2, 8]: 80 nM; IC50 [3, 8]: 864 nM; IC50 [4, 8]: 250 nM; IC50 [5, 8]: 26600 nM
LQISRVNDL	1700	90	11	229	≥ 70000	
NLLEQLIENI	326	836	1440	396	24700	
LLVAAGMEA						IC50 ([1]; source organism: SARS-CoV1): 51 nM; IC50 ([2]; source organism: SARS-CoV1): 17 nM; IC50 ([3]; source organism: SARS-CoV1): 17 nM; IC50 ([4]; source organism: SARS-CoV1): 117 nM; IC50 ([5]; source organism: SARS-CoV1): 19300 nM
FLPQIGGEAI	158	1	14	10	6540	
